In data set [1] the test system is HeLa Kyoto. The data set can be described thus: melting temperature (median over replicates), in situ; higher = more thermally stable.
Data set [2] deals with HeLa Kyoto. Description: solubility in G1/S (NP-40 vs SDS abundance) (log2 ratio); higher = more soluble. The settings on record: cell cycle stage: G1/S.
Data set [3] concerns HeLa Kyoto. Description: solubility change mitosis vs G1/S (difference of NP-40 vs SDS log2 ratios) (log2 ratio difference); higher = more soluble in mitosis.
The subject of data set [4] is HeLa Kyoto. The data set can be described thus: thermal stability score vs G1/S (z-score of summed log2 fold changes over temperatures); higher = more thermally stable than in G1/S.
[5] abbreviates: cell cycle stage: early G1 (4.5 h after nocodazole release).
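For melting temperature (median over replicates), in situ in this document: HeLa Kyoto cells synchronized by double thymidine or nocodazole block, proteins quantified by TMT10plex mass spectrometry, three independent biological replicates.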
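For solubility change mitosis vs G1/S (difference of NP-40 vs SDS log2 ratios) in this document: synchronized HeLa Kyoto cells (double thymidine block for G1/S, nocodazole release for mitosis), protein amounts in NP-40 versus SDS lysates quantified by mass spectrometry, three biological replicates.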
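For solubility in G1/S (NP-40 vs SDS abundance) in this document: HeLa Kyoto cells arrested at G1/S by double thymidine block, proteins quantified by TMT10plex mass spectrometry in mild NP-40 versus SDS extracts, three biological replicates.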
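For thermal stability score vs G1/S (z-score of summed log2 fold changes over temperatures) in this document: synchronized HeLa Kyoto cells, proteins quantified by TMT10plex mass spectrometry, three biological replicates, mitosis taken 0.5 h after nocodazole release, G1/S directly after double thymidine block.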

For “MDGRTPRPQDAPARRKPKAKAPLPPAETKYTDVSSAADSVESTAFIMEQKENMIDKDVELSVVLPGDIIKSTTVHGSKPMMDLLIFLCAQYHLNPSSYTIDLLSAEQNHIKFKPNTPIGMLEVEKVILKPKMLDKKKPTPIIPEKTVRVVINFKKTQKTIVRVSPHASLQELAPIICSKCEFDPLHTLLLKDYQSQEPLDLTKSLNDLGLRELYAMDVNRESCQISQNLDIMKEKENKGFFSFFQRSKKKRDQTASAPATPLVNKHRPTFTRSNTISKPYISNTLPSDAPKKRRAPLPPMPASQSVPQDLAHIQERPASCIVKSMSVDETDKSPCEAGRVRAGSLQLSSMSAGNSSLRRTKRKAPSPPSKIPPHQSDENSRVTALQPVDGVPPDSASEANSPEELSSPAGISSDYSLEEIDEKEELSEVPKVEAENISPKSQDIPFVSTDIINTLKNDPDSALGNGSGEFSQNSMEEKQETKSTDGQEPHSVVYDTSNGKKVVDSIRNLKSLGPNQENVVQNEIIVYPENTEDNMKNGVKKTEINVEGVAKNNNIDMEVERPSNSEAHETDTAISYKENHLAASSVPDQKLNQPSAEKTKDAAIQTTPSCNSFDGKHQDHNLSDSKVEECVQTSNNNISTQHSCLSSQDSVNTSREFRSQGTLIIHSEDPLTVKDPICAHGNDDLLPPVDRIDKNSTASYLKNYPLYRQDYNPKPKPSNEITREYIPKIGMTTYKIVPPKSLEISKDWQSETIEYKDDQDMHALGKKHTHENVKETAIQTEDSAISESPEEPLPNLKPKPNLRTEHQVPSSVSSPDDAMVSPLKPAPKMTRDTGTAPFAPNLEEINNILESKFKSRASNAQAKPSSFFLQMQKRVSGHYVTSAAAKSVHAAPNPAPKELTNKEAERDMLPSPEQTLSPLSKMPHSVPQPLVEKTDDDVIGQAPAEASPPPIAPKPVTIPASQVSTQNLKTLKTFGAPRPYSSSGPSPFALAVVKRSQSFSKERTESPSASALVQPPANTEEGKTHSVNKFVDIPQLGVSDKENNSAHNEQNSQIPTPTDGPSFTVMRQSSLTFQSSDPEQMRQSLLTAIRSGEAAAKLKRVTIPSNTISVNGRSRLSHSMSPDAQDGH [COBLL1]”, the melting temperature in the data set on HeLa Kyoto [1] (cell cycle stage: G1/S) was determined as 50.5 °C; with HeLa Kyoto [1] (cell cycle stage: mitosis) it was 50.8 °C. Besides, the “solubility in G1/S (log2)” value in the data set with HeLa Kyoto [2] is 0.0471. The “solubility change mitosis (log2)” value in the data set on HeLa Kyoto [3] was -0.0197. In addition, the thermal stability score is -0.155 with HeLa Kyoto [4] (setting [5]) and -0.336 in the data set with HeLa Kyoto [4] (cell cycle stage: mitosis).

For “MDHYDSQQTNDYMQPEEDWDRDLLLDPAWEKQQRKTFTAWCNSHLRKAGTQIENIEEDFRDGLKLMLLLEVISGERLAKPERGKMRVHKISNVNKALDFIASKGVKLVSIGAEEIVDGNVKMTLGMIWTIILRFAIQDISVEETSAKEGLLLWCQRKTAPYKNVNIQNFHISWKDGLGFCALIHRHRPELIDYGKLRKDDPLTNLNTAFDVAEKYLDIPKMLDAEDIVGTARPDEKAIMTYVSSFYHAFSGAQKAETAANRICKVLAVNQENEQLMEDYEKLASDLLEWIRRTIPWLENRVPENTMHAMQQKLEDFRDYRRLHKPPKVQEKCQLEINFNTLQTKLRLSNRPAFMPSEGRMVSDINNAWGCLEQVEKGYEEWLLNEIRRLERLDHLAEKFRQKASIHEAWTDGKEAMLRQKDYETATLSEIKALLKKHEAFESDLAAHQDRVEQIAAIAQELNELDYYDSPSVNARCQKICDQWDNLGALTQKRREALERTEKLLETIDQLYLEYAKRAAPFNNWMEGAMEDLQDTFIVHTIEEIQGLTTAHEQFKATLPDADKERLAILGIHNEVSKIVQTYHVNMAGTNPYTTITPQEINGKWDHVRQLVPRRDQALTEEHARQQHNERLRKQFGAQANVIGPWIQTKMEEIGRISIEMHGTLEDQLSHLRQYEKSIVNYKPKIDQLEGDHQLIQEALIFDNKHTNYTMEHIRVGWEQLLTTIARTINEVENQILTRDAKGISQEQMNEFRASFNHFDRDHSGTLGPEEFKACLISLGYDIGNDPQGEAEFARIMSIVDPNRLGVVTFQAFIDFMSRETADTDTADQVMASFKILAGDKNYITMDELRRELPPDQAEYCIARMAPYTGPDSVPGALDYMSFSTALYGESDL [ACTN1]”, the melting temperature in the data set with HeLa Kyoto [1] (cell cycle stage: G1/S) stood at 58.3 °C; in the data set on HeLa Kyoto [1] (cell cycle stage: mitosis), 55.9 °C. Further, the “solubility in G1/S (log2)” value in the data set with HeLa Kyoto [2] is -0.1. The “solubility change mitosis (log2)” value in the data set on HeLa Kyoto [3] came to 0.09. Also, the thermal stability score in the data set on HeLa Kyoto [4] (setting [5]) is -0.623; in the data set with HeLa Kyoto [4] (cell cycle stage: mitosis), -1.86.

Take “MDISTRSKDPGSAERTAQKRKFPSPPHSSNGHSPQDTSTSPIKKKKKPGLLNSNNKEQSELRHGPFYYMKQPLTTDPVDVVPQDGRNDFYCWVCHREGQVLCCELCPRVYHAKCLRLTSEPEGDWFCPECEKITVAECIETQSKAMTMLTIEQLSYLLKFAIQKMKQPGTDAFQKPVPLEQHPDYAEYIFHPMDLCTLEKNAKKKMYGCTEAFLADAKWILHNCIIYNGGNHKLTQIAKVVIKICEHEMNEIEVCPECYLAACQKRDNWFCEPCSNPHPLVWAKLKGFPFWPAKALRDKDGQVDARFFGQHDRAWVPINNCYLMSKEIPFSVKKTKSIFNSAMQEMEVYVENIRRKFGVFNYSPFRTPYTPNSQYQMLLDPTNPSAGTAKIDKQEKVKLNFDMTASPKILMSKPVLSGGTGRRISLSDMPRSPMSTNSSVHTGSDVEQDAEKKATSSHFSASEESMDFLDKSTASPASTKTGQAGSLSGSPKPFSPQLSAPITTKTDKTSTTGSILNLNLDRSKAEMDLKELSESVQQQSTPVPLISPKRQIRSRFQLNLDKTIESCKAQLGINEISEDVYTAVEHSDSEDSEKSDSSDSEYISDDEQKSKNEPEDTEDKEGCQMDKEPSAVKKKPKPTNPVEIKEELKSTSPASEKADPGAVKDKASPEPEKDFSEKAKPSPHPIKDKLKGKDETDSPTVHLGLDSDSESELVIDLGEDHSGREGRKNKKEPKEPSPKQDVVGKTPPSTTVGSHSPPETPVLTRSSAQTSAAGATATTSTSSTVTVTAPAPAATGSPVKKQRPLLPKETAPAVQRVVWNSSSKFQTSSQKWHMQKMQRQQQQQQQQNQQQQPQSSQGTRYQTRQAVKAVQQKEITQSPSTSTITLVTSTQSSPLVTSSGSMSTLVSSVNADLPIATASADVAADIAKYTSKMMDAIKGTMTEIYNDLSKNTTGSTIAEIRRLRIEIEKLQWLHQQELSEMKHNLELTMAEMRQSLEQERDRLIAEVKKQLELEKQQAVDETKKKQWCANCKKEAIFYCCWNTSYCDYPCQQAHWPEHMKSCTQSATAPQQEADAEVNTETLNKSSQGSSSSTQSAPSETASASKEKETSAEKSKESGSTLDLSGSRETPSSILLGSNQGSDHSRSNKSSWSSSDEKRGSTRSDHNTSTSTKSLLPKESRLDTFWD [ZMYND8]”: the melting temperature was determined as 48.5 °C with HeLa Kyoto [1] (cell cycle stage: G1/S) and 50.2 °C in the data set on HeLa Kyoto [1] (cell cycle stage: mitosis). Moreover, the “solubility in G1/S (log2)” value in the data set on HeLa Kyoto [2] was -0.387. Also, in the data set with HeLa Kyoto [3], the “solubility change mitosis (log2)” value came out at 0.163. Also, the thermal stability score in the data set with HeLa Kyoto [4] (setting [5]) amounted to 1.53; in the data set on HeLa Kyoto [4] (cell cycle stage: mitosis) it was 3.16.

The record behind these values is the supplement of paper PMC5998384.
